Assay results: patent US20240109974A1 (SHANDONG SIMCERE BIOPHARMACEUTICAL, published 2024)

Columns and labels:
[1] = target: T1, human TNFR2 (Novoprotein, Cat #C830) (human, UniProt P20333 23-257, limits assumed); assay: competition ELISA: antibody titrated against human TNFα-Biotin on coated human TNFR2 (Novoprotein), detection with Streptavidin-HRP [panel A]
T1 construct: construct not described; also called human TNFR2 protein
T1 sequence (looked up): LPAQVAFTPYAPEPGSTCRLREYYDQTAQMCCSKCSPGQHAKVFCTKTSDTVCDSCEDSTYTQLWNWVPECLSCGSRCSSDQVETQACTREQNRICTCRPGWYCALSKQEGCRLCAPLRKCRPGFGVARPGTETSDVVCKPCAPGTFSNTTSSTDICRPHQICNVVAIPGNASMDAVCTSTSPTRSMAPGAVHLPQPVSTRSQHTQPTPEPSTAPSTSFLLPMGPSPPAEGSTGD
Experimental: 1 μg/ml human TNFR2 (Novoprotein, Cat #C830) was pre-coated with 100 μl/well […] in an ELISA plate. All the test TNFR2 antibodies were subjected to 2.5-fold gradient dilution from the highest concentration of 30 μg/ml; the diluted antibodies were mixed with 15 ng/ml human TNFα-Biotin (Acro Biosystem, Cat #TNA-H82E3) in equal volume, respectively; the resulting mixture was added to the ELISA plate at 100 μl/well, and incubated with shaking at room temperature for 2.0 hours. The plate was washed, and then a Streptavidin-HRP working solution (diluted at 1:10000) was added at 100 μl/well, and the mixture was incubated with shaking at room temperature for 40 minutes. The plate was washed again, and then the substrate TMB of HRP was added to develop colour. A stop solution was added to stop the reaction, and then a microplate reader (MD 13) was used to read the absorbance value. The inhibitory curve of an antibody was drawn with antibody concentration as the abscissa and corresponding OD value as the ordinate, and fitted with four parameters (GraphPad Prism9) to calculate the IC50 value. The smaller the IC50 value, the stronger the ability of an antibody to inhibit the binding of human TNFα to human TNFR2. The blocking effect of a humanized antibody was normalized to its corresponding human-murine chimeric antibody WT. […]

[2] = target: T2, Cynomolgus TNFR2-His (Sino 90102-C08H) (cynomolgus monkey, UniProt A0A2K5VET2 132-366); assay: ELISA, plate coated with Cynomolgus TNFR2-His, detection with anti-human IgG Fc-HRP [panel B]
T2 construct: Bought protein; also called cynomolgus monkey TNFR2; recombinant cynomolgus monkey TNFR2 protein; not shown: His tag
T2 sequence: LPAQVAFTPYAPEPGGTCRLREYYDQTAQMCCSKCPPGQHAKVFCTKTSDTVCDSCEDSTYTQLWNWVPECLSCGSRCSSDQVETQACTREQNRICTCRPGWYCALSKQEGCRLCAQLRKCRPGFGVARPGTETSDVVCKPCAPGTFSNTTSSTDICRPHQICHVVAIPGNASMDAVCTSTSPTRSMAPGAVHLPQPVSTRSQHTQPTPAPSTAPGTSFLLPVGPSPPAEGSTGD
Experimental: The test humanized antibody against TNFR2 (as described in Example 1, the antibody was comprised of variable regions linked to IgG-Fc; the WT chimeric antibody also adopted the IgG-Fc structure) was subjected to 3.33-fold gradient dilution, loaded with 100 μl/well, and incubated with shaking at room temperature for 1.5 hours. The plate was washed, and then a working solution of murine anti-human IgG Fc-HRP (diluted at 1:10000) was added, loaded with 100 μl/well, and incubated with shaking at room temperature for 1.0 hour. The plate was washed again, and then the substrate TMB of HRP was added to develop colour. A stop solution was added to stop the reaction, and then a microplate reader (MD 13) was used to read the absorbance value. The binding curve of an antibody was drawn with antibody concentration as the abscissa and corresponding OD value as the ordinate, and fitted with four parameters (GraphPad Prism9) to calculate the EC50 value. The smaller the EC50 value, the stronger the binding ability of an antibody to human/cynomolgus monkey TNFR2. The binding effect of a humanized antibody was normalized to its corresponding human-murine chimeric antibody WT (see SEQ ID NOs: 38-43 for the sequence). The higher the percentage value, the better the binding effect of the humanized antibody. […]

Row | Binder | IC50 (read off the curve) [1] | EC50 (read off the curve) [2]
1 | 001-WT (antibody, V domains shown, Human-murine chimeric wild-type molecule; also called human-murine chimeric antibody WT of #001) VH: EVQLQESGGGLVQPGGSLNLSCAASGFAFSTYDLSWVRQTPEKRLEWVAYINNGGISTYYSDTVKGRFTISRDNAKNTLYLQMSSLKSEDTAMYYCVRGPFYGSANYFDYWGQGTTVTVSS VL: EIVMTQSPASLSLSVGETVTITCRTSESIYSNLPWYQQKQGKSPQLLVYDATKLAEGVPSRFSGSESGTQYSLKINSLQSEDFGTYYCQHFWVTPWTFGGGTKLEIK | ~0.6 µg/mL | –
2 | 219-WT (antibody, V domains shown, Human-murine chimeric wild-type molecule) VH: EVQLQESGAELVRPGASVKLSCKASGYSFTNYWMNWVKQRPGQGLEWIGMIHPSDTETRLNQNFKDKATLTVDKSSSTSYMQLSSPTSEDSAVYYCARGEGLGAARSVSMDYWGQGTTVTVSS VL: DILMTQSPSSLSASLGDRVTISCRASQDISNYLNWYQQKPDGTVKVLIYYTAILHSGVPSRFSGSGSGTDYSLTISNLEQEDIATYFCQQGNTLPWTFGGGTKLEIK | – | ~0.01 µg/mL
